Assay results from US20140212423A1 (AbbVie / Abbott, published 2014).

Legend:
[1] = target: Repulsive guidance molecule A; experiment: cell-based or functional assay
[2] = target: T1, mouse Transferrin Receptor overexpressed on Hek 293 cells (mouse, UniProt Q62351 1-763); experiment: 293/mTFR cell-based assay
T1 construct: whole, on cells; also called Hek293/mTfR; 293/mTFR
Protocol: (§1) Meso-scale Discovery (MSD) Electrochemiluminescesnce (ECL) assays to screen for antibodies or DVDs that bind a desired target antigen expressed on the cell surface were performed as follows: Hek 293 cells overexpressing mouse Transferin Receptor were added onto MSD 96-well plates (MSD Cat# L11 XB-3, lot#2290-EA) which were blocked using blocking buffer (30% FBS Serum (Hyclone) in PBS) at 37° C. for 1 hr. After incubating at RT for 30 min with mild agitation, plates were washed with DPBS 3 times and Abs/DVDs (10,000 ng/ml) were added. After incubating for 1 hr at RT, plates were washed 3 times with DPBS and 25 ul of Goat anti human Sulfo TAG (MSD Cat# R32AC-, Lot# W001162) at 1 μg/ml is added. Following a 1 h incubation at RT for 1 hr, plates are washed and MSD read buffer is added before reading on MSD SECTOR Imager 6000. EC50 values are obtained using Xlfit4 software package

[3] = target: T1, mouse Transferrin Receptor …; experiment: cell-based MSD-ECL binding on Hek293 cells overexpressing mouse TfR
Protocol: as §1

rmTfR (123-763) = target: T2, rmTfR (123-763) (mouse, UniProt Q62351 123-763); experiment: Biacore SPR, DVD-Ig captured via anti-human Fc, rmTfR (123-763) in solution
T2 construct: range 123-763; also called recombinant mouse transferrin receptor 123-763
T2 sequence (Q62351 123-763): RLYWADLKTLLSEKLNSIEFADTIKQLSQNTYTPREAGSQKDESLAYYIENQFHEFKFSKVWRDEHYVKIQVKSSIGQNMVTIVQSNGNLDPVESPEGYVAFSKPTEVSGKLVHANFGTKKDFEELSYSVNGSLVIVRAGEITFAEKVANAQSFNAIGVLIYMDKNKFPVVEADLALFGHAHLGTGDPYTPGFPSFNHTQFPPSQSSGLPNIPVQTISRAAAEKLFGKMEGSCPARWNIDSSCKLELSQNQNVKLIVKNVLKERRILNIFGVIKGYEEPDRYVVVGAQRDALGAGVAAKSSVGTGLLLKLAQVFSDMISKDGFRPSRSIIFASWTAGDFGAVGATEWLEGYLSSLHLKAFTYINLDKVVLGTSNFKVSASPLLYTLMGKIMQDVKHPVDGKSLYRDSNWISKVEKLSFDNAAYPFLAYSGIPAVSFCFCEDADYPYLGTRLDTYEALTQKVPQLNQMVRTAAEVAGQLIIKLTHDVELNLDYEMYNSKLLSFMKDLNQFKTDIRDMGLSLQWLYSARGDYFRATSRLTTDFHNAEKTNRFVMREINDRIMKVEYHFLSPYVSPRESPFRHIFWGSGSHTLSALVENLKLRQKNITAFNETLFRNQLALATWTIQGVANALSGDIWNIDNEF
Protocol: The BIACORE assay (Biacore, Inc, Piscataway, N.J.) was used to determine the affinity of antibodies or DVD-Ig™ with kinetic measurements of on-rate and off-rate constants. Binding of antibodies or DVD-Ig™ to a target antigen (for example, a purified recombinant target antigen) was determined by surface plasmon resonance-based measurements with a Biacore® 1000 or 3000 instrument (Biacore® AB, Uppsala, Sweden) using running HBS-EP (10 mM HEPES [pH 7.4], 150 mM NaCl, 3 mM EDTA, and 0.005% surfactant P20) at 25° C. All chemicals were obtained from Biacore® AB (Uppsala, Sweden) or otherwise from a different source as described in the text. For example, approximately 5000 RU of goat anti-human IgG, (Fcγ), fragment specific polyclonal antibody (Pierce Biotechnology Inc, Rockford, Ill.) diluted in 10 mM sodium acetate (pH 4.5) was directly immobilized across a CM5 research grade biosensor chip using a standard amine coupling kit according to manufacturer's instructions and procedures at 25 μg/ml. Unreacted moieties on the biosensor surface are blocked with ethanolamine. Modified carboxymethyl dextran surface in flowcell 2 and 4 is used as a reaction surface. Unmodified carboxymethyl dextran without goat anti-human IgG in flow cell 1 and 3 is used as the reference surface. For kinetic analysis, rate equations derived from the 1:1 Langmuir binding model were fitted simultaneously to association and dissociation phases of all eight injections (using global fit analysis) with the use of Biaevaluation 4.0.1 software. Purified antibodies or DVD-Ig™ were diluted in HEPES-buffered saline for capture across goat anti-human IgG specific reaction surfaces. Antibodies or DVD-Ig™ to be captured as a ligand (25 μg/ml) were injected over reaction matrices at a flow rate of 5 μl/min. The association and dissociation rate constants, kon (M⁻¹s⁻¹) and koff (s⁻¹) are determined under a continuous flow rate of 25 μl/min. Rate constants are derived by making kinetic binding measurements at different antigen concentrations ranging from 10-200 nM. The equilibrium dissociation constant (M) of the reaction between antibodies or DVD-Ig™s and the target antigen is then calculated from the kinetic rate constants by the following formula: KD=koff/kon. Binding is recorded as a function of time and kinetic rate constants are calculated.

T1 sequence (Q62351 whole entry): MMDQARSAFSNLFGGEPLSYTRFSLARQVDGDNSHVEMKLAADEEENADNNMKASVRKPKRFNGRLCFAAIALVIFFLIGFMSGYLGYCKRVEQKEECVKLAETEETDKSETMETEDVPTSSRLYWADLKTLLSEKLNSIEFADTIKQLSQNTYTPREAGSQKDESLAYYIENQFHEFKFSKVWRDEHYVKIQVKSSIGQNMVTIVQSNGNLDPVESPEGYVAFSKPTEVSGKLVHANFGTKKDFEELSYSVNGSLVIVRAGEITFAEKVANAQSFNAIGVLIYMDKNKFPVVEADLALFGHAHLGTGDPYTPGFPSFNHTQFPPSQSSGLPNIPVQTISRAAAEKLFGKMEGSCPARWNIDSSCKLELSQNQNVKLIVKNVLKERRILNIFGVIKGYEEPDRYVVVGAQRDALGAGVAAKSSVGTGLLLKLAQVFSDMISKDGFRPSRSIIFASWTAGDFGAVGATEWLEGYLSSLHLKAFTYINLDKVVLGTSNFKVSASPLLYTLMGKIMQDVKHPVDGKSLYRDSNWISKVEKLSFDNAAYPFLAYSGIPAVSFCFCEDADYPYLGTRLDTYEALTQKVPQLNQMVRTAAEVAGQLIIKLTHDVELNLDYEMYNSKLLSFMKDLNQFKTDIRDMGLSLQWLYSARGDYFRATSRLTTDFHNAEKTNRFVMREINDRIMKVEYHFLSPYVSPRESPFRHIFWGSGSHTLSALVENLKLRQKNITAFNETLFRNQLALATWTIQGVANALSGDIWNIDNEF

Binder | BMP Assay (EC50, nM) [1] [nM] | EC50 [2] [nM] | EC50 [3] [nM] | Kd (rmTfR (123-763)) [nM] | koff (rmTfR (123-763)) [s⁻¹] | kon (rmTfR (123-763)) [M⁻¹ s⁻¹]
TfR(AB404)-LL-RGMA(AE12-1) (bispecific antibody) chain 1: QVQLVQSGAEVKKPGASVKVSCKASGFTFSNYGMHWIRQAPGQGLEWIAMIYYDSSKMNYADTVKGRFTITRDNSTNTLYMELSSLRSEDTAVYYCAVPTSHYVVDVWGQGTTVTVSSASTKGPSVFPLAPEVQLVQSGAEVKKPGASVKVSCKASGYTFTSHGISWVRQAPGQGLDWMGWISPYSGNTNYAQKLQGRVTMTTDTSTSTAYMELSSLRSEDTAVYYCARVGSGPYYYMDVWGQGTLVTVSS chain 2: AIQMTQSPSSLSASVGDRVTITCQASQDIGNWLAWYQQKPGKSPKLLIYGATSLADGVPSRFSGSRSGTDFTLTISSLQPEDFATYYCLQAYNTPWTFGGGTKVEIKRTVAAPSVFIFPPQSALTQPRSVSGSPGQSVTISCTGTSSSVGDSIYVSWYQQHPGKAPKLMLYDVTKRPSGVPDRFSGSKSGNTASLTISGLQAEDEADYYCCSYAGTDTLFGGGTKVTVLG | 13.2 | 3.61 |  |  |  | 
RGMA(AE12-1)-SS-TfR(AB402) (bispecific antibody, DVD-Ig composed from its name; constant regions not assigned; not shown: short light-chain linker (code S) after a lambda VL) VH: EVQLVQSGAEVKKPGASVKVSCKASGYTFTSHGISWVRQAPGQGLDWMGWISPYSGNTNYAQKLQGRVTMTTDTSTSTAYMELSSLRSEDTAVYYCARVGSGPYYYMDVWGQGTLVTVSSASTKGPEVQLVESGGGLVQPGGSLRLSCAASGFTFSNYGMHWIRQAPGKGLEWIAMIYYDSSKMNYADTVKGRFTISRDNAKNSLYLQMNSLRAEDTAVYYCAVPTSHYVVDVWGQGTTVTVSS VL: QSALTQPRSVSGSPGQSVTISCTGTSSSVGDSIYVSWYQQHPGKAPKLMLYDVTKRPSGVPDRFSGSKSGNTASLTISGLQAEDEADYYCCSYAGTDTLFGGGTKVTVLGQPKAAPAIQMTQSPSSLSASVGDRVTITCQASQDIGNWLAWYQQKPGKSPKLLIYGATSLADGVPSRFSGSRSGTDFTLTISSLQPEDFATYYCLQAYNTPWTFGGGTKVEIKR | 0.436 | 30.9 |  |  |  | 
RGMA(AE12-1)-GS-TfR(AB402) (bispecific antibody, DVD-Ig composed from its name; constant regions not assigned) VH: EVQLVQSGAEVKKPGASVKVSCKASGYTFTSHGISWVRQAPGQGLDWMGWISPYSGNTNYAQKLQGRVTMTTDTSTSTAYMELSSLRSEDTAVYYCARVGSGPYYYMDVWGQGTLVTVSSGGGGSGGGGSEVQLVESGGGLVQPGGSLRLSCAASGFTFSNYGMHWIRQAPGKGLEWIAMIYYDSSKMNYADTVKGRFTISRDNAKNSLYLQMNSLRAEDTAVYYCAVPTSHYVVDVWGQGTTVTVSS VL: QSALTQPRSVSGSPGQSVTISCTGTSSSVGDSIYVSWYQQHPGKAPKLMLYDVTKRPSGVPDRFSGSKSGNTASLTISGLQAEDEADYYCCSYAGTDTLFGGGTKVTVLGGGSGGGGSGAIQMTQSPSSLSASVGDRVTITCQASQDIGNWLAWYQQKPGKSPKLLIYGATSLADGVPSRFSGSRSGTDFTLTISSLQPEDFATYYCLQAYNTPWTFGGGTKVEIKR | 0.014 | 5.36 |  |  |  | 
RGMA(AE12-1)-SS-TfR(AB403) (bispecific antibody, DVD-Ig composed from its name; constant regions not assigned; not shown: short light-chain linker (code S) after a lambda VL) VH: EVQLVQSGAEVKKPGASVKVSCKASGYTFTSHGISWVRQAPGQGLDWMGWISPYSGNTNYAQKLQGRVTMTTDTSTSTAYMELSSLRSEDTAVYYCARVGSGPYYYMDVWGQGTLVTVSSASTKGPEVQLVESGGGLVQPGGSLRLSCAASGFTFSNYGMHWIRQAPGKGLEWIAMIYYDSSKMNYADTVKGRFTISRDNAKNSLYLQMNSLRAEDTAVYYCAVPTSHYVVDVWGQGTTVTVSS VL: QSALTQPRSVSGSPGQSVTISCTGTSSSVGDSIYVSWYQQHPGKAPKLMLYDVTKRPSGVPDRFSGSKSGNTASLTISGLQAEDEADYYCCSYAGTDTLFGGGTKVTVLGQPKAAPEIVMTQSPATLSVSPGERATLSCQASQDIGNWLAWYQQKPGQSPRLLIYGATSLADGVPARFSGSRSGTEFTLTISSLQSEDFAVYYCLQAYNTPWTFGGGTKVEIKR | 1.18 | 71 |  |  |  | 
RGMA(AE12-1)-GS-TfR(AB403) (bispecific antibody, DVD-Ig composed from its name; constant regions not assigned; also called RGMA (AE12-1)-GS-AB403 DVD-Ig) VH: EVQLVQSGAEVKKPGASVKVSCKASGYTFTSHGISWVRQAPGQGLDWMGWISPYSGNTNYAQKLQGRVTMTTDTSTSTAYMELSSLRSEDTAVYYCARVGSGPYYYMDVWGQGTLVTVSSGGGGSGGGGSEVQLVESGGGLVQPGGSLRLSCAASGFTFSNYGMHWIRQAPGKGLEWIAMIYYDSSKMNYADTVKGRFTISRDNAKNSLYLQMNSLRAEDTAVYYCAVPTSHYVVDVWGQGTTVTVSS VL: QSALTQPRSVSGSPGQSVTISCTGTSSSVGDSIYVSWYQQHPGKAPKLMLYDVTKRPSGVPDRFSGSKSGNTASLTISGLQAEDEADYYCCSYAGTDTLFGGGTKVTVLGGGSGGGGSGEIVMTQSPATLSVSPGERATLSCQASQDIGNWLAWYQQKPGQSPRLLIYGATSLADGVPARFSGSRSGTEFTLTISSLQSEDFAVYYCLQAYNTPWTFGGGTKVEIKR | < 0.025 | 4.3 |  |  |  | 
DVD2358 (bispecific antibody, DVD-Ig, outer AB402 (TfR), inner AB043 (APP), HG-short/LK-short; dual variable regions only; constant regions not assigned) VH: EVQLVESGGGLVQPGGSLRLSCAASGFTFSNYGMHWIRQAPGKGLEWIAMIYYDSSKMNYADTVKGRFTISRDNAKNSLYLQMNSLRAEDTAVYYCAVPTSHYVVDVWGQGTTVTVSSASTKGPEVQLLESGGGLVQPGGSLRLSCAASGFTFSNYGMSWVRQAPGKGLEWVASIRSGGGRTYYSDNVKGRFTISRDNSKNTLYLQMNSLRAEDTAVYYCVRYDHYSGSSDYWGQGTLVTVSS VL: AIQMTQSPSSLSASVGDRVTITCQASQDIGNWLAWYQQKPGKSPKLLIYGATSLADGVPSRFSGSRSGTDFTLTISSLQPEDFATYYCLQAYNTPWTFGGGTKVEIKRTVAAPDVVMTQSPLSLPVTPGEPASISCKSSQSLLDSDGKTYLNWLLQKPGQSPQRLIYLVSKLDSGVPDRFSGSGSGTDFTLKISRVEAEDVGVYYCWQGTHFPRTFGQGTKVEIKR |  |  | 0.1 | 1.3 | 4.06e-05 | 31300
DVD2360 (bispecific antibody, DVD-Ig, outer AB403 (TfR), inner AB043 (APP), HG-short/LK-short; dual variable regions only; constant regions not assigned) VH: EVQLVESGGGLVQPGGSLRLSCAASGFTFSNYGMHWIRQAPGKGLEWIAMIYYDSSKMNYADTVKGRFTISRDNAKNSLYLQMNSLRAEDTAVYYCAVPTSHYVVDVWGQGTTVTVSSASTKGPEVQLLESGGGLVQPGGSLRLSCAASGFTFSNYGMSWVRQAPGKGLEWVASIRSGGGRTYYSDNVKGRFTISRDNSKNTLYLQMNSLRAEDTAVYYCVRYDHYSGSSDYWGQGTLVTVSS VL: EIVMTQSPATLSVSPGERATLSCQASQDIGNWLAWYQQKPGQSPRLLIYGATSLADGVPARFSGSRSGTEFTLTISSLQSEDFAVYYCLQAYNTPWTFGGGTKVEIKRTVAAPDVVMTQSPLSLPVTPGEPASISCKSSQSLLDSDGKTYLNWLLQKPGQSPQRLIYLVSKLDSGVPDRFSGSGSGTDFTLKISRVEAEDVGVYYCWQGTHFPRTFGQGTKVEIKR |  |  | 0.15 | 1.7 | 4.8e-05 | 28000
DVD2365 (bispecific antibody, DVD-Ig, outer AB405 (TfR), inner AB043 (APP), HG-short/LK-short; dual variable regions only; constant regions not assigned) VH: QVQLVQSGAEVKKPGASVKVSCKASGFTFSNYGMHWIRQAPGQGLEWIAMIYYDSSKMNYADTVKGRFTITRDNSTNTLYMELSSLRSEDTAVYYCAVPTSHYVVDVWGQGTTVTVSSASTKGPEVQLLESGGGLVQPGGSLRLSCAASGFTFSNYGMSWVRQAPGKGLEWVASIRSGGGRTYYSDNVKGRFTISRDNSKNTLYLQMNSLRAEDTAVYYCVRYDHYSGSSDYWGQGTLVTVSS VL: EIVMTQSPATLSVSPGERATLSCQASQDIGNWLAWYQQKPGQSPRLLIYGATSLADGVPARFSGSRSGTEFTLTISSLQSEDFAVYYCLQAYNTPWTFGGGTKVEIKRTVAAPDVVMTQSPLSLPVTPGEPASISCKSSQSLLDSDGKTYLNWLLQKPGQSPQRLIYLVSKLDSGVPDRFSGSGSGTDFTLKISRVEAEDVGVYYCWQGTHFPRTFGQGTKVEIKR |  |  | 3.2 | 78 | 0.000771 | 9870
